The values that follow come from US7422862B2, “Methods for identifying modulators of apoptosis” (The Burnham Institute, priority 2001, dated 2008).

Test [1] deals with endogenous Bax protein. In words: Subcellular fractionation and immunoblot of endogenous Bax after STS. Format: cell-based. Particulars: Cos7 cells, untagged peptides, STS. The protocol:
(A-B) Humanin peptide prevents STS-induced Bax translocation in vivo. Cos-7 cells were first transfected with GFP-Bax plasmids. After 24 hrs, untagged wild-type or C8P mutant Humanin peptides were introduced into cells using ChariotTM reagent, and 2 h later cells were treated with 1 μM STS. After 4 h, the percentage of cells with translocated Bax was determined (mean±SD; n=3) by confocal microscopy (A) and representative photomicrographs (B). (C) Wild-type or C8P mutant Humanin peptides were introduced into Cos7 cells using ChariotTM reagent. Cytosolic (C) and mitochondria-containing (M) fractions were isolated by differential centrifugation 23 and analyzed by immunoblotting using anti-Bax (top), Hsp60 (middle) (mitochondrial marker), or Tubulin (bottom) (cytosol marker) antibodies. (D) HN or mutant control double-strand siRNAs were transfected into SF268 cells. After 48 h, cells were cultured without (Control) or with 0.1 uM STS. After 24 hr, cells were fractionated and analyzed by immunoblotting as above. […] After 3 h at 30° C., mitochondria were centrifuged and the resulting pellets (P) and supernatants (S) were analyzed by immunoblotting using anti-Cytochrome c (top), Hsp60 (middle), and Bax (bottom) antibodies. […]
These findings were also confirmed by subcellular fractionation, where cytosol and mitochondria-enriched heavy membrane preparations were prepared from Cos7 cells transduced with untagged Humanin or Humanin(C8P) peptides, and the relative amounts of endogenous Bax protein in these two fractions were measured by immunoblot analysis of samples normalized for cell-equivalents. […] Differences in the relative potency of Humanin at blocking Bax translocation as measured by microscopy (FIG. 7A) versus cell fractionation methods (FIG. 7C) can be explained by differences in the sensitivity of the assays, or could possibly indicate that even in cells where some Bax translocation has occurred, less of the total Bax protein associated with mitochondria. […]
In general terms: In western blotting, separated proteins are transferred to a membrane and probed.

Test [2] concerns the target purified recombinant Bax (Homo sapiens, UniProt Q07812). In words: Isolated mitochondria: Bax association and cytochrome c release assay. Format: biochemical. The settings on record: 100 μM peptide preincubated with Bax, HCT116 mitochondria. The procedure: (A-B) Humanin peptide prevents STS-induced Bax translocation in vivo. Cos-7 cells were first transfected with GFP-Bax plasmids. After 24 hrs, untagged wild-type or C8P mutant Humanin peptides were introduced into cells using ChariotTM reagent, and 2 h later cells were treated with 1 μM STS. After 4 h, the percentage of cells with translocated Bax was determined (mean±SD; n=3) by confocal microscopy (A) and representative photomicrographs (B). (C) Wild-type or C8P mutant Humanin peptides were introduced into Cos7 cells using ChariotTM reagent. Cytosolic (C) and mitochondria-containing (M) fractions were isolated by differential centrifugation 23 and analyzed by immunoblotting using anti-Bax (top), Hsp60 (middle) (mitochondrial marker), or Tubulin (bottom) (cytosol marker) antibodies. (D) HN or mutant control double-strand siRNAs were transfected into SF268 cells. After 48 h, cells were cultured without (Control) or with 0.1 uM STS. After 24 hr, cells were fractionated and analyzed by immunoblotting as above. (E) Isolated mitochondria were mixed with 400 ng Bax protein, with or without preincubating Bax with 100 uM Humanin or Humanin(C8P) peptides for 10 min. After 3 h at 30° C., mitochondria were centrifuged and the resulting pellets (P) and supernatants (S) were analyzed by immunoblotting using anti-Cytochrome c (top), Hsp60 (middle), and Bax (bottom) antibodies. (F) HN peptide enforces the interaction of Bax TM domain with Bax.TM. Lysates from HEK293T cells expressing Flag-Bax.TM were pretreated with or without Humanin or Humanin(C8P) peptides. Lysates were then mixed in vitro with lysates of HEK293T cells expressing GFP-TM(Bax). Immunoprecipitations were performed with anti-Flag antibody, analyzing lysates and immunoprecipitates (IP) by immunoblotting using monoclonal anti-GFP antibody.
To determine whether Humanin can act directly on Bax, the effects of Humanin on isolated mitochondria were tested. Addition of recombinant purified Bax protein to mitochondria in vitro induces cytochrome c release (Jurgensmeier et al., Proc. Natl. Acad. Sci. USA 95:4997-5002 (1998)). […] Therefore Humanin can directly suppress Bax targeting to mitochondria, without requirement for intact cells.
Cytochrome c release assays were performed as follows. Mitochondria were isolated from HCT116 cells by differential centrifugation as described above. Purified recombinant human Bax protein (400 ng for each sample) was pre-incubated with or without 100 μM synthetic Humanin peptide or mutant Humanin (C8P) peptide for 10 min at 4° C. The untreated or peptide pre-treated Baxprotein samples were then mixed with equal amount of HCT116 mitochondria (in a volume of 40 μl) at 30° C. for 3 hours. […]

Test [3] has as its target T1, t-Bid (Homo sapiens, UniProt P55957).
T1 sequence (P55957 61-195 limits assumed): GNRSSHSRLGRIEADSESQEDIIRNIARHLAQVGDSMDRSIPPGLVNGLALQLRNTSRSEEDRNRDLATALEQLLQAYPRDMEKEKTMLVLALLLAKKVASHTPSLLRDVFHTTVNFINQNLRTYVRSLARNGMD
As to the kind of experiment: Co-immunoprecipitation of Humanin with t-Bid in 293T cells. Type of test: binding. The arrangement: expressed in transfected cells. The procedure: The lysates were immunoprecipitated with (A) anti-GFP antibody or (B) anti-tBid antibody and blotted with (A) anti-HA antibody or (B) anti-GFP antibody. The data shown were obtained using the cytosolic form of Humanin; however, both cytosolic and mitochondrial forms of Humanin were tested and the results were the same.
The following experiments confirm an interaction between Humanin and Bax. Similar experiments were performed to confirm an interaction between Humanin and Bid.

purified recombinant Bax, sequence (Q07812 whole entry): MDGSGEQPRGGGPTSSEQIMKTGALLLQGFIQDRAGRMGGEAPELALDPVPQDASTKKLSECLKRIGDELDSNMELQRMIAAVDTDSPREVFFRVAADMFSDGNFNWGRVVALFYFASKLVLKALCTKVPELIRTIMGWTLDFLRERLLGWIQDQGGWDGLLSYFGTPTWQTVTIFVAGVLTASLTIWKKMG

With “Humanin: 24 amino acid polypeptide, cytosolic form of human Humanin (SEQ ID NO:2); used as synthetic peptide or expressed fusion”, the “Bax translocation by subcellular fractionation” value in test [1] is “reduced”. In addition, in test [2], the “Bax association with mitochondria” value is on record as “suppressed” and the cytochrome c release entry is reported as “reduced”. Further, the “interaction with t-Bid by co-immunoprecipitation” value in test [3] was “found to interact”.
